The record followed here is US20210261685A1 (Alector, published 2021).

The Kd is a measure of binding affinity in units of concentration. Higher therefore signals weaker binding. In general, IC50 refers to the concentration that inhibits the measured activity by half.

For assay [1], the target named is T1, human MerTK endogenously expressed on cells (SK-MEL-5 cells; human macrophages) (human, UniProt Q12866 21-999).
T1 construct: also called MerTK on SK-MEL-5
T1 sequence: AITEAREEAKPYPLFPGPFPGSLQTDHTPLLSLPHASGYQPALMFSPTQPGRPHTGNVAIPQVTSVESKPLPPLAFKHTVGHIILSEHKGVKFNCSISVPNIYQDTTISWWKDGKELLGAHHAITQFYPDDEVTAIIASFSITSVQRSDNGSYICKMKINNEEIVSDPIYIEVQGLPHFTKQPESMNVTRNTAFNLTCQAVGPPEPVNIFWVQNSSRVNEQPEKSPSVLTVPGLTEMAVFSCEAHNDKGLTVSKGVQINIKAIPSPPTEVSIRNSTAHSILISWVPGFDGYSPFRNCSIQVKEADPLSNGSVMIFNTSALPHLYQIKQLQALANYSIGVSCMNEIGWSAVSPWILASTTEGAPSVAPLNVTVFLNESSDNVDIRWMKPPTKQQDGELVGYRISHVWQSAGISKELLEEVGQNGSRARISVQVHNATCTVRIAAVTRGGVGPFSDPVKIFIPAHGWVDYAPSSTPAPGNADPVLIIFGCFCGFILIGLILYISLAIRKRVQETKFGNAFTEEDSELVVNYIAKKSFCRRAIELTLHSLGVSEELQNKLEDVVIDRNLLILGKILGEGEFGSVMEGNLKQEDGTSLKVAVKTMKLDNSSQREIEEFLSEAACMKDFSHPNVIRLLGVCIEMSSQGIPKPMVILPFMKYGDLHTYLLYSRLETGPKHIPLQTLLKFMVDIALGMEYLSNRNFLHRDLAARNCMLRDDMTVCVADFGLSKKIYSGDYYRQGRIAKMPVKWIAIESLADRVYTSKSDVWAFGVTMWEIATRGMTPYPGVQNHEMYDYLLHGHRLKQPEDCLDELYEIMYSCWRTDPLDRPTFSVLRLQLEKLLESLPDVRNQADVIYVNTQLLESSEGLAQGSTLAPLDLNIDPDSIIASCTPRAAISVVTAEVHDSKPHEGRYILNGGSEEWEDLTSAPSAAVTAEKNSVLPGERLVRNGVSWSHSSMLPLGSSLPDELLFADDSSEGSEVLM
Description: flow cytometry on SK-MEL-5 cells, Prism fit. The procedure: To determine whether recombinant anti-human MerTK antibodies of the present disclosure bind to human MerTK endogenously expressed on SK-MEL-5 cells and to CHO cells overexpressing mouse MerTK (CHO-muMerTK OE cells), the following experiments were performed. SK-MEL-5 cells and CHO-muMerTK OE cells were plated at 40,000 cells/well. Anti-MerTK antibodies were titrated to a final concentration range of between 66.6 nM to 4 pM and then added to the cells. After 30 min on ice, cells were washed and then stained with APC-conjugated mouse anti-human Kappa antibody (Southern Biotech Cat #9230-11, Birmingham, Ala.) and a viability die (Life Technologies) in the presence of Fc block solution on ice for 30 minutes, and then washed twice with cold FACS buffer (2% FBS in PBS). Cells were fixed with 4% paraformaldehyde in PBS. Stained cells were acquired on a BD FACS Canto II cytometer and the mean fluorescence intensity (MFI) was calculated with FlowJo software and K value was calculated with Prism software. […] A lower Kd value reflects higher binding of antibody to cells.
Background: In flow cytometry, cells or beads pass a laser one at a time.

Assay [2] concerns the target T2, Recombinant human MerTK human Fc Chimera protein (R&D systems, Cat #391-MR-100) (human, UniProt Q12866 26-499, limits assumed).
T2 construct: Bought; also called recombinant human MerTK protein; MerTK-Fc
T2 sequence: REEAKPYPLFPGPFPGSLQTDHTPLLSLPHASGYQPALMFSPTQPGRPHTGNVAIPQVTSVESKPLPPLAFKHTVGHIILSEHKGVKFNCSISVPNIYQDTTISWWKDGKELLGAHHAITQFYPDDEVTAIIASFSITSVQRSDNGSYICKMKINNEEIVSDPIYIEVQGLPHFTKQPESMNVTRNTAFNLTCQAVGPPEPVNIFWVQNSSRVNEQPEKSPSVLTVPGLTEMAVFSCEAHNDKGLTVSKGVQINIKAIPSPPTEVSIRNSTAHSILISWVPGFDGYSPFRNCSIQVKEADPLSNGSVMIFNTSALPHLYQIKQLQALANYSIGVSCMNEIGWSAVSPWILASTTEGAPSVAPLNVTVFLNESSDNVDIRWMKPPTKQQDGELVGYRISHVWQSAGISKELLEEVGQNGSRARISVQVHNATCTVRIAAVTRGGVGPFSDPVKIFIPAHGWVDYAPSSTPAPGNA
Description: competition ELISA, His-Gas6 on captured MerTK-Fc. Here is the method:
Rabbit anti-human IgG polyclonal antibody (Jackson ImmunoResearch, Cat #309-005-008) was captured to a high-protein binding plate at 2 μg/ml 4° C. overnight. After washing with 0.05% Tween20 in PBS three times, 5% BSA in PBS was added for 1 hour. Recombinant human MerTK human Fc Chimera protein (R&D systems, Cat #391-MR-100) was added at 2 μg/ml for 1 hour and the plates were then washed. Anti-MerTK antibodies were titrated to final concentration range of between 66.6 nM to 4 pM and then 40 μl of serially diluted antibody and 40 μl of His tag-conjugated recombinant Gas6 protein (R&D systems, Cat #885-GSB-050) at 3 μg/ml or His tag-conjugated recombinant ProS protein (R&D systems, Cat #9489-PS-100) at 20 μg/ml. After a further incubation for 1 hour, plates were washed and incubated for 1 hour with HRP-conjugated anti-6×His tag antibody (Abcam, Cat #ab1187). Plates were then washed and an HRP substrate (TMB) was used to develop the plates. After sufficient color change was observed, the reaction was stopped by adding 50 μl 2N H₂SO₄ and the OD was measured using a spectrophotometer (BioTek).
From these experiments, IC50 values [nM] were determined using OD450 values obtained from the dose-response curves analyzed with Prism software. Table 14 and Table 15 show IC50 values determined for anti-MerTK antibody blocking of Gas6 ligand binding and ProS ligand binding to MerTK. […] Dashes indicate lack of significant blocking; “n.a.” indicates data not available.

B1: MTK-02 (antibody, human IgG1, V domains shown)
VH: QIQLVQSGPELKQPGETVKISCKASGYTFTDYGVNWVKQAPGKGLKWMGWINTYSGEPTYAGDFKGRFAFSLESSASTAFLQINNLKNEDMATYFCARRVRYWYFDVWGAGTSVTVSS
VL: QIVLSQSPAILSASPGERVTMTCRANSSVSYMHWYQQKPGSSPKPWIYATSNLASGVPARFSASGSGTSYSLTVSRVEAEDAATYYCQQWGSNPFTFGSGTKLEIK
For B1, in assay [1], the Kd is 0.024 nM.

B2: MTK-04 (antibody, human IgG1, V domains shown)
VH: QIQLVQSGPELKKPGETVKISCKASGYTFTNYGMNWVKQAPGKGLKCMGWINTYTGEPTYADDFKGRFAFSLETSASTAYLQINNLKNEDMATYFCAKYDNYAWFAYWGQGTLVTVSA
VL: QIVLSQSPAFLSASPGEKVTMTCRASSSVSYMHWYLQKPGSSPKPWIYATSNLASGVPVRFSGSGSGTSYSLTISRVEAEDAATYYCQQWSSNPRTFGGGTKLEIR
In assay [1], B2 showed a Kd of 0.037 nM.

B3: MTK-14 (antibody, human IgG1, V domains shown)
VH: QIQLVQSGPELKKPGETVKISCKASGYTFTNYGMNWVKQAPGKDLQWMGWINTYTGEPTYADDFTGRFAFSLETSASTAYLQINNLKNEDTATYFCAKGGHYAWFAYWGQGTLVTVSA
VL: QIVLSQSPAILSASPGEKVTMTCRSSSSVSYMHWYQQKPGSSPKPWIYATSNLASGVPGRFSGSGSGTSYSLTISRVEAEDAATYYCQQWGSNPRTFGGGTKLEIK
Take B3: the Kd in assay [1] amounted to 0.021 nM.

B4: MTK-06 (antibody, human IgG1, V domains shown)
VH: QIQLVQSGPELKKPGETVKISCKASGYTFTNYGMNWVKQAPGKGLKWMGWINTNTGEPTYAEEFKGRFAFSLETSASTAYLQINNLKNEDTATYFCARYYNYWYFDVWGAGTTVTVSS
VL: QIVLSQSPAILSASPGEKVTMTCRASSSVSYMHWYQQKPGSSPKPWIYATSNLASGVPARFSGSGSGTSYSLTISRVEAEDAATYYCQQWSSKPPTFGGGTKLEIK
In assay [1], B4 showed an equilibrium dissociation constant (Kd) of 0.005 nM.

B5: MTK-08 (antibody, human IgG1, V domains shown)
VH: QIQLVQSGPELKKPGETVKISCKASGYTFTNYGMNWVKQAPGKGLKWMGWINTYTGEPTYADDFKGRFAFSLETSASTAYLQINNLKNEDTATYFCAREVRYWYFDVWGAGTTVTVSS
VL: QIVLSQSPAILSASPGEKVTMTCRATSSVSYMHWFQQKPGSSPKPWIYATSNLASGVPARFSGSGSGTSYSLTISRVEAEDAAAYYCQHWSGNPRTFGGGTKLEIK
On to B5, for which the affinity in assay [1], expressed as Kd, was 0.079 nM.

B6: MTK-32 (antibody, human IgG1, V domains shown)
VH: QIQLVQSGPELKKPGETVKISCKASGYTFTSYGMSWVHQAPGKGLKWLGWINTYSGVPTYADDFRGRFAFSLDTSVSTASLEINNLQNEDTATYFCAREDNWAWFAYWGQGTLVTVST
VL: QIVLSQSPAILSASPGEKVTMTCRATSSVGYMHWYQRKPGSSPKPWIYATSNLASGVPARFSGSGSGTSYSLTISRVEAEDAATYYCQQWSSNPRTFGGGTKLEIK
For the molecule B6, in assay [1], the Kd is 0.4 nM.

B7: MTK-28 (antibody, human IgG1, V domains shown)
VH: QIQLVQSGPELKKPGETVKISCKASGYTFTTYGMSWVKQAPGKGLKWMGWINTYSGVPTYADDFKGRFAFSLETSASTAYLQINTLKNEDTTTYFCARFLRYYYFDYWGQGTTLTVSS
VL: QIVLSQSPVILSASPGEKVTMTCRASSSVTYMHWYQQQPGSSPKPWIYATSNLASGVPARFSGSGSGTSYSLTISRVETEDAATYYCHQWSGNPTFGGGTKLEIN
B7 yielded a Kd in assay [1] of 0.52 nM.

B8: MTK-21 (antibody, human IgG1, V domains shown)
VH: QIQLVQSGPELKKPGETVKISCKASGYTFTNFGMTWVRQAPGMDLKWMGWINTYTGEPKYADDFKGRFALSLETSASTAYLQITNFKNEDTATYFCARGGGRLGLRPLDYWGQGTTLTVSS
VL: DIQMTQTTSSLSASLGDRVTISCRASQDINNYLNWYQQKPDGTVKLLIYYTSSLHSGVPSRFSGSGSGTDYSLTITNLEQEDIATYFCQQGNTLPWTFGGGTRLEIK
As for B8, the IC50 in assay [2] was 5.98 nM. The molecule also gave a Kd in assay [1] of 23.4 nM.

B9: MTK-10 (antibody, human IgG1, V domains shown)
VH: QVTLKESGPGILQPSQTLSLTCSFSGFSLTTSGMGVGWIRQPSGKGLEWLAHIWSDDDKRSNPALKSRLTISQDSSTNQVFLKIASVDTADSATYYCSHLTPVREFAYWGPGTLVTVSE
VL: DIQMTQTTSSLSASLGDRVTISCSASQGISNYLNWFQQKPDGTVKLLIYYTSRLHSGVPSRFSGSGSGTDFSLTISNLEPEDIATYYCQQYTKLPYTFGGGTKLEIK
In the case of B9, in assay [2], the IC50 came out at 32.4 nM. The molecule further had a Kd in assay [1] of 0.076 nM.

B10: MTK-24 (antibody, human IgG1, V domains shown)
VH: QVQLQQPGAELVKPGASVKLSCKASGYTFTSYWMHWVKQRPGQGLEWIGMIHPNINTNYNEKFKSKATLTVDISSSTAYMQLSSLTSEDSAVYYCAKRSPYSNYDWYFDVWGTGTTVTVSS
VL: DIQMTQSPASLSVSVGETVTITCRASENIYSNLAWYQQKQGKSPQLLVYAATNLADGVPSRFSGSGSGTQYSLKINSLQSEDFGSYYCQHFWGTPLTFGAGTKLELK
As for B10, in assay [2], the IC50 worked out at 0.74 nM. The Kd in assay [1] is 0.59 nM.

B11: MTK-13 (antibody, human IgG1, V domains shown)
VH: DVQLQESGPGLVKPSQSLSLTCSVTGYSITSGYYWNWIRQFPGNKLEWMGNIDYDGSNKYNPSLKNRISITRDTSKNHFFLKLNSVTPEDTATYFCARDGGNYRSFAYWGQGTLVTVSA
VL: QIVLTQSPPIMSASPGEKVTITCSASSSVSYMYWFQQKPGTSPKLWIYSTFNLASGVPARFSGSGSGTSYSLTISRMEAEDVATYYCQQRSSYPFTFGSGTKLEIK
For B11, the IC50 in assay [2] came out at 18.9 nM. The Kd in assay [1] is 0.68 nM.

B12: MTK-31 (antibody, human IgG1, V domains shown)
VH: QIQLVQSGPELKKSGETVKISCKASGYTFTSYGMSWVKQAPGKGLKWMGWINTYSGVPTYADDFKGRFAFSLETSASTAYLQINNLKNEDTATYFCASLSYDGSLYHAMDYWGQGTSVTVSS
VL: DVSMTQTPLSLPVSLGDQASISSRSSQTIVHSNGNTYLEWYLQKPGQSPKLLIYKVSNRFSGVPDRFSGSGSGTDFTLKISRVEAEDLGVYYCFQGSHVPWTFGGGTKLEIK
Consider B12, for which the half-maximal inhibitory concentration (IC50) in assay [2] was 1.29 nM.
